Reference: US20030108924A1

Molecular target: KCNQ1 cardiac potassium channel (KvLQT1), full-length (UniProt P51787)
Assay: cell-based or functional assay

increase of current after the 10th pulse of a depolarizing pulse train: 1.9 fold
time constant for activation at +40 mV (first time constant): 368 ms
time constant for activation at +40 mV (second time constant): 2150 ms
time constant of deactivation (tail currents at -50 mV after activation at +60 mV): 295 ms
voltage-dependence of activation, V1/2: 20.6 mV
Substance: KCNE1-D85N (cardiac potassium channel minK subunit polypeptide with asparagine at amino acid 85)
